Experimental findings from patent publication US11357847B2, “Modified HSV gD protein and vaccine containing same” (KM Biologics Co., Ltd., priority 2017, dated 2022) are described below.

Positions count from the first letter of the chain named. In names and notes the source's numbering stands.

For data set [1], the system named is HSV-2 MS strain. The data set is described as follows: Mouse infection-prevention test of modified gD (genital herpes infection model). The format is in vivo, BALB/c mice. Set-up: key to Determination (vs gD1-315) / Determination# (vs gD1-315): ++: minimum effective dose based on the Significant difference test in three-fold common ratio relative to gD1-315(WT) of two or more doses stronger; +: those of one dose stronger; ±: those of an equivalent value. The note with it: Experiment 3. As to the method: Immunogenicity test of the modified gD antigen was performed using the wild-type gD antigen gD1-315 (WT) as a positive control and saline as a negative control. A predetermined amount of antigen was dissolved in saline for injection (saline) with MPLA (10 μg/mouse) and CpG (1 μg/mouse) and immunized to mice at a volume of 200 μL/mouse. BALB/c mice (5 weeks old, female) were used for the study and immunized subcutaneously in back at 2-week intervals for a total of 3 times (N=4 cases per group). Two weeks after the final immunization (third dose), blood was collected and serum was prepared for each individual. The prepared serum was serially diluted and assessed for neutralizing antibody-inducing activity against HSV-2 (50% plaque number-reducing activity).
An infection-prevention test in the preventive administration of modified gD antigen was performed using a mouse genital herpes infection model. Similar to the mouse immunogenicity test described above, mice were immunized with the number of N=10 cases per group. Depo-Provera was inoculated subcutaneously at 2 mg/mouse 6 days prior to viral inoculation to improve the multiplicity of infection upon viral inoculation 2 weeks after final immunization (third dose). 5×10^5 PFU/20 μL HSV-2 MS strain was inoculated transvaginally under anesthesia and observed for 21 days. Infection prevention ability was evaluated using survival time (survival rate) as index.
The infection model of the mouse genital herpes infection model was used to evaluate infection prevention ability of various modified gD in preventive administration. The number of animal cases in each group was set to n=10, and wild-type gD (gD1-315) was used as a positive control and saline was used as a negative control. The experiments were performed a total of four times (experiments 1-4) and four doses of 0.1 μg/mouse/time, 0.03 μg/mouse/time, 0.01 μg/mouse/time and 0.003 μg/mouse/time were set for all of the positive control, negative control, and subject modified gD antigen. Depo-Provera was inoculated subcutaneously at 2 mg/mouse 6 days prior to viral inoculation to improve the multiplicity of infection upon viral inoculation 2 weeks after final immunization (third dose). 5×10^5 PFU/20 HSV-2 MS strain was inoculated transvaginally under anesthesia and observed for 21 days. Infection prevention ability was evaluated using survival time (survival rate) as index. Mean values of those were plotted in the graph. A Significant difference test for the negative control group was performed by the Kaplan-Meier method, and those with a minimum effective dose based on the Significant difference test in three-fold common ratio relative to wild type gD of two or more doses stronger were determined to be “++”, those of one dose stronger were determined to be “+”, and those of an equivalent value were determined to be “±”.

The subject of data set [2] is various anti-gD2 antibodies. Briefly: Reactivity of gD variants with anti-gD2 antibodies (competitive ELISA). The format is binding, human. The note with it: for Reactivity with anti-gD2 antibody 1 / Reactivity with anti-gD2 antibody 5 / Reactivity with anti-gD2 antibody 13 / Reactivity with anti-gD2 antibody 72 / Reactivity with anti-gD2 antibody 75 / Reactivity with anti-gD2 antibody 78 / Reactivity with anti-gD2 antibody 82: immobilized gD variant. The text has this: Each anti-gD2 monoclonal antibody and each gD variant were expressed using an Expi293 expression system.
In general terms: In an ELISA, binding on a coated surface is turned into a signal by an enzyme label.

Data set [3] is described as follows: Properties of produced gD variants (aggregates). The class given is physicochemical. The note with it: expressed and purified variant. The source says:
Four gD1-275-based variants were produced. Since these were FR3-deficient variants, V231W mutations affecting FR3 were not investigated. […] Meanwhile, eight gD1-315-based variants were produced, and none of the variants were less than the original gD1-315 in both properties and expression level.

Where [4] appears, read: fourth dose line, 0.03 μg/head/time.

B1: gD1-315v3V: gD1-315 with glycochain at SC-F and V231W (protein)
chain: KYALADPSLKMADPNRFRGKNLPVLDQLTDPPGVKRVYHIQPSLEDPFQNASIPITVYYAVLERACRSVLLHAPSEAPQIVRGASDEARKHTYNLTIAWYRMGDNCAIPITVMEYTECPYNKSLGVCPIRTQPRWSYYDSFSAVSEDNLGFLMHAPAFETAGTYLRLVKINDWTEITQFILEHRARASCKYALPLRIPPAACLTSKAYQQGVTVDSIGMLPRFIPENQRTWALYSLKIAGWHGPKPPYTSTLLPPELSDTTNATQPELVPEDPEDSALLEDPAGTVSSQIPPNWHIPSIQDVAPHHAPAAPSNPGHHHHHH
Regarding B1, in data set [1] (0.01 μg/head/time), the “Mean survival time” value is 7 days and the “Significant difference test (vs saline)” value is “* (* 0.01 = < p < 0.05)”. Besides, in data set [1] (0.03 μg/head/time), the “Mean survival time” value is listed as above 21 days and the “Significant difference test (vs saline)” value was “*** (*** p < 0.001)”. Moreover, in data set [1] (0.1 μg/head/time), the “Mean survival time” value is above 21 days and the “Significant difference test (vs saline)” value is reported as “*** (*** p < 0.001)”. In data set [1] (setting [4]), the “Mean survival time” value was 6 days and the “Significant difference test (vs saline)” value is “N.S”. Moreover, the “Determination# (vs gD1-315)” value in data set [1] (minimum effective dose relative to gD1-315(WT)) is reported as “±”. In data set [2], the “Reactivity with anti-gD2 antibody 1” value was “+ ((+): 70% or more)”, the “Reactivity with anti-gD2 antibody 5” value is recorded as “− ((−): less than 30%)”, the “Reactivity with anti-gD2 antibody 13” value is “+ ((+): 70% or more)” and the “Reactivity with anti-gD2 antibody 72” value is reported as “− ((−): less than 30%)”. In data set [2], the “Reactivity with anti-gD2 antibody 75” value is given as “− ((−): less than 30%)”, the “Reactivity with anti-gD2 antibody 78” value was “− ((−): less than 30%)” and the “Reactivity with anti-gD2 antibody 82” value is “+ ((+): 70% or more)”.

B2: gD1-275v3: gD1-275 with glycochain at P50 (SC-F) (protein)
chain: KYALADPSLKMADPNRFRGKNLPVLDQLTDPPGVKRVYHIQPSLEDPFQNASIPITVYYAVLERACRSVLLHAPSEAPQIVRGASDEARKHTYNLTIAWYRMGDNCAIPITVMEYTECPYNKSLGVCPIRTQPRWSYYDSFSAVSEDNLGFLMHAPAFETAGTYLRLVKINDWTEITQFILEHRARASCKYALPLRIPPAACLTSKAYQQGVTVDSIGMLPRFIPENQRTVALYSLKIAGWHGPKPPYTSTLLPPELSDTTNATQPELVPEDPEDHHHHHH
Consider B2, for which, in data set [2], the “Reactivity with anti-gD2 antibody 1” value was “− ((−): less than 30%)”, the “Reactivity with anti-gD2 antibody 5” value is reported as “− ((−): less than 30%)”, the “Reactivity with anti-gD2 antibody 13” value is listed as “− ((−): less than 30%)” and the “Reactivity with anti-gD2 antibody 72” value is listed as “− ((−): less than 30%)”. Further, in data set [2], the “Reactivity with anti-gD2 antibody 75” value is “− ((−): less than 30%)”, the “Reactivity with anti-gD2 antibody 78” value is “− ((−): less than 30%)” and the “Reactivity with anti-gD2 antibody 82” value is listed as “+ ((+): 70% or more)”. Also, in data set [3], the “Properties of the variant (aggregates)” value is “no change in properties”.

B3: gD1-275v5: gD1-275 with glycochains at R186 (SC-A) and P50 (SC-F) (protein)
chain: B2 chain with R186N
Take B3: the “Relative reactivity with antibody No. 82 (gD1-315 wild-type set to 1)” value in data set [2] (FIG. 13) was “substantially similar reactivity”. In data set [2], the “Reactivity with anti-gD2 antibody 1” value is “− ((−): less than 30%)”, the “Reactivity with anti-gD2 antibody 5” value is reported as “− ((−): less than 30%)”, the “Reactivity with anti-gD2 antibody 13” value is on record as “− ((−): less than 30%)” and the “Reactivity with anti-gD2 antibody 72” value was “+ ((+): 70% or more)”. In addition, in data set [2], the “Reactivity with anti-gD2 antibody 75” value is given as “− ((−): less than 30%)”, the “Reactivity with anti-gD2 antibody 78” value is recorded as “− ((−): less than 30%)” and the “Reactivity with anti-gD2 antibody 82” value is “+ ((+): 70% or more)”. The “Properties of the variant (aggregates)” value in data set [3] was “no change in properties”.
